The record followed here is patent US20110045003A1 (SYNOVEX, published 2011).

Numbering of substitutions follows the chain as printed. Names and notes keep the numbering of the source.

Assay [1] addresses T1, BSA coupled 37-mer Cad-11 peptide encompassing the Cad-11 immunogen (UniProt P55287 54-90, limits assumed, linked to BSA).
T1 construct: domain: 37-mer peptide encompassing the Cad-11 immunogen; also called Cad-11 antigen; Cad-11 peptide immunogen
T1 peptide (looked up): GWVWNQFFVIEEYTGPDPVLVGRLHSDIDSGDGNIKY
Kind of assay: ELISA on BSA coupled 37-mer peptides, coat 50 ng/ml.

The target of assay [2] is T2, recombinant Cad-11 EC1 human IgG1 fusion protein (R&D Systems Cat. No. 1790-CA-050) (human, UniProt P55287 54-617, limits assumed).
T2 construct: Bought protein; the catalogue product may hold more of the extracellular region; also called recombinant human Cad-11 EC1; recombinant human Cad-11 fusion protein; not shown: human IgG1 part of the bought fusion protein
T2 sequence: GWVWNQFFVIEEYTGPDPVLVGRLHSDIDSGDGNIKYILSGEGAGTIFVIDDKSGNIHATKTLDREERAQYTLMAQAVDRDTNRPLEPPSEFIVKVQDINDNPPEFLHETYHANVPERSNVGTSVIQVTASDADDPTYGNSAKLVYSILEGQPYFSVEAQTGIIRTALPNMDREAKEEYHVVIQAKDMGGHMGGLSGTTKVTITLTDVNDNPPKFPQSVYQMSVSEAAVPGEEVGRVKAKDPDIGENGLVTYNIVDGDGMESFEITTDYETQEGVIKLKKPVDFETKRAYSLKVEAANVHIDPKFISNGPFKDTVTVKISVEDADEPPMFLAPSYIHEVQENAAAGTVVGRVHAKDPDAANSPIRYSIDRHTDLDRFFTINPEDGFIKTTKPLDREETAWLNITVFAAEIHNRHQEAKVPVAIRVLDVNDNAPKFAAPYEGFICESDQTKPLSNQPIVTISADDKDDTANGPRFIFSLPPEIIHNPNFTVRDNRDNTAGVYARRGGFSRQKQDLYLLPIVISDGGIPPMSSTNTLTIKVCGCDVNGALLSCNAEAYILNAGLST
Description: competition ELISA on coated recombinant human Cad-11 EC1 fusion protein; competitor biotinylated SYN0012 at 0.1 µg/ml, streptavidin-HRP, OD450. As for the experimental part:
(§1) The binding of the purified humanized composite variant antibodies (SDP011 to SDP151) to a recombinant Cad-11 EC1 human IgG1 fusion protein was assessed in a competition binding ELISA. A dilution series from 5 μg/ml to 0.0022 μg/ml of the humanized or control (SYN0012/H1M1) antibodies was premixed with a constant concentration of biotinylated murine anti-Cad-11 antibody, SYN0012/H1M1 (0.1 μg/ml, final concentration), before incubating for 1 hour at room temperature on a Nunc Immuno MaxiSorp 96 well flat bottom microtitre plate (Fisher Cat. No. DIS-971-030J) pre-coated with 0.25 μg/ml recombinant human Cad-11 EC1 (R&D Systems Cat. No. 1790-CA-050) diluted in PBS. The binding of the biotinylated mAb was detected with streptavidin-HRP (Sigma Cat. No. 55512) and tetramethylbenzidine (TMB) substrate (Invitrogen Cat. No. 00-2023).

Assay [3] has as its target T2, recombinant Cad-11 EC1 human IgG1 …. Description: competition ELISA on coated recombinant human Cad-11 EC1 fusion; competitor biotinylated SYN0012/H1M1 at 0.1 µg/ml. As for the experimental part: as §1
The relative IC50 was calculated by dividing the value for the test antibody by that of SYN0012. Antibody expression levels given are for static cultures in T flasks. PI are calculated.

Assay [4] addresses T3, recombinant his-tagged human Cad-11 (R&D Systems) (human, UniProt P55287 54-617).
T3 construct: also called rhCad-11; recombinant human Cad-11; not shown: his tag
T3 sequence: T2 sequence
Kind of assay: SPR, rhCad-11 immobilized, SDP051 as analyte, 2 state reaction model (kd1). How it is done:
To determine the affinity of SDP051 for recombinant his-tagged human Cad-11, rhCad-11 (R&D Systems) was immobilized to the chip at a single concentration, high resolution kinetics were determined for SDP051, and a 2-state reaction binding model was successfully fitted to the kinetic data.
Kinetic data were obtained at a flow rate of 40 μL/min to minimize any potential mass transfer effects. An analyte concentration series ranging from 12.5 nM to 0.195 nM was prepared by serial dilution. Two repeats of the blank (no mAb) and the 3.125 nM (first and last cycle) concentration of the analyte were programmed into the kinetic runs in order to check the stability of both the surface and analyte over the kinetic cycles. The SDP051 was injected over the Fcs for 360 seconds, long enough to observe the curvature in association phase.
As rhCad-11 is homodimeric and therefore contained two identical binding epitopes, it is likely that individual mAb molecules become bound sequentially through a first binding site and then both binding sites.

In assay [5] the target is T1, BSA coupled 37-mer Cad-11 peptide …. Description: ELISA, BSA-coupled 37-mer cadherin peptide coated at 500 ng/ml, antibody titrated, A450. As for the experimental part: Reactibind plates (ThermoScientific) were coated with 500 ng/ml of the BSA coupled cadherin 37-mer peptide (NE peptide) corresponding to Cadherins-7, -8, -9, -11, -18, -20, and -24 in 0.05% Tween (EMD, product code 9480) in PBS (pH 7.2) (Gibco(Invitrogen), #20012) at 100 μl volume/well for overnight at 4° C. The peptide containing solution was removed from the well and the plate blocked with a 2% bovine serum albumin (BSA) in PBS, 200 μl volume/well, for 2 h at 22° C. The plate was then washed twice with 200 μl/well of PBS-Tween 0.05% at 22° C. and blotted dry. A dilution series from 5 μg/ml to 8 ng/ml in a volume of 100 μl/well of each the humanized anti-Cad-11 antibodies were incubated in the peptide coated wells and incubated at 22° C. for 1 hr. Antibody solution was removed from the wells and the plate washed twice with 200 μl/well of 0.05% Tween-PBS at 22° C. and blotted dry. The goat-anti mouse IgG (Pierce # 31432) was added to each well to plate at a 1:1000 dilution, 100 μl/well and incubate at 22° C. for 30 min. The secondary antibody solution was removed and the plate washed twice with 200 μl/well of 0.05% Tween-PBS at 22° C. and blotted dry. The reaction was developed by adding 100 μl/well tetramethylbenzidine (TMB) reagent IgG (Pierce # 34022, 1 step Turbo TMB-ELISA) to plate and developed at 22° C. for 5 min.

B1: humanized anti-Cad-11 EC1 antibody SDP051 (Vκ1/VH5) (antibody, IgG4, V domains shown)
VH: EVQLVQSGAEVKKPGASVKVSCKASGYSFTGYFMNWVRQAPGQGLEWIGRINPYTGDTFYNQKFKGRVTITVDKSTSTAYMELSSLRSEDTAVYYCGRLGSRYWYFDVWGQGTTVTVSS
VL: DVLMTQTPLSSPVTLGQPASISCRSSQSIIHSNGNTYLEWYLQKPGQSPQLLIYKVSNRFSGVPDRFTGSGSGTDFTLKISRVEAEDVGVYYCFQGSHVPWTFGQGTKLEIK
notes: humanized IgG4 (S241P), kappa
For B1, the “binding differential (Cad-11 against Cad-8)” value in assay [1] was more than 200 fold. For the same molecule, the “IC50 (read off the curve)” value in assay [2] was approximately 0.2 µg/mL. In assay [3], the “relative IC50 (IC50 of the test antibody divided by that of SYN0012)” value was 0.99 ratio (column head prints µg/mL). For the same molecule, the koff in assay [4] came to 0.0043 s⁻¹. Moreover, in assay [5], the “EC50 (read off the curve)” value was approximately 0.04 µg/mL.

B2: murine H1M1 monoclonal anti-Cad-11 EC1 antibody (hybridoma H1M1, ATCC PTA-9699) (antibody, V domains shown)
VH: EVQLQQSGPELVKPGASVKISCKASGYSFTGYFMNWVKQSHGKSLEWIGRINPYTGDTFYNQKFKGKATLTVDKSSSTAHMELLSLSSEDSAVYYCGRLGSRYWYFDVWGAGTTVTVSS
VL: B1 VL with S11L, T14S, Q17D, P18Q, Q50K, V88L, Q105G
modifications: Biotinylated when used as the labelled competitor in Example 14; the letters are unchanged.
notes: murine antibody raised against Peptide 4; also called SYN0012; SYN0012/H1M1
Take B2: the “IC50 (read off the curve)” value in assay [2] was approximately 0.2 µg/mL.
